# Measured values reported in PMC2956116 (Structure (London, England : 1993), 2010).
# B1: Staphylococcus aureus pyruvate carboxylase (enzyme, S. aureus, UniProt A0A0H3JRU9 1-1150, looked up)
# chain: MKQIKKLLVANRGEIAIRIFRAAAELDISTVAIYSNEDKSSLHRYKADESYLVGSDLGPAESYLNIERIIDVAKQANVDAIHPGYGFLSENEQFARRCAEEGIKFIGPHLEHLDMFGDKVKARTTAIKADLPVIPGTDGPIKSYELAKEFAEEAGFPLMIKATSGGGGKGMRIVREESELEDAFHRAKSEAEKSFGNSEVYIERYIDNPKHIEVQVIGDEHGNIVHLFERDCSVQRRHQKVVEVAPSVGLSPTLRQRICDAAIQLMENIKYVNAGTVEFLVSGDEFFFIEVNPRVQVEHTITEMVTGIDIVKTQILVAAGADLFGEEINMPQQKDITTLGYAIQCRITTEDPLNDFMPDTGTIIAYRSSGGFGVRLDAGDGFQGAEISPYYDSLLVKLSTHAISFKQAEEKMVRSLREMRIRGVKTNIPFLINVMKNKKFTSGDYTTKFIEETPELFDIQPSLDRGTKTLEYIGNVTINGFPNVEKRPKPDYELASIPTVSSSKIASFSGTKQLLDEVGPKGVAEWVKKQDDVLLTDTTFRDAHQSLLATRVRTKDMINIASKTADVFKDGFSLEMWGGATFDVAYNFLKENPWERLERLRKAIPNVLFQMLLRASNAVGYKNYPDNVIHKFVQESAKAGIDVFRIFDSLNWVDQMKVANEAVQEAGKISEGTICYTGDILNPERSNIYTLEYYVKLAKELEREGFHILAIKDMAGLLKPKAAYELIGELKSAVDLPIHLHTHDTSGNGLLTYKQAIDAGVDIIDTAVASMSGLTSQPSANSLYYALNGFPRHLRTDIEGMESLSHYWSTVRTYYSDFESDIKSPNTEIYQHEMPGGQYSNLSQQAKSLGLGERFDEVKDMYRRVNFLFGDIVKVTPSSKVVGDMALYMVQNDLDEQSVITDGYKLDFPESVVSFFKGEIGQPVNGFNKDLQAVILKGQEALTARPGEYLEPVDFEKVRELLEEEQQGPVTEQDIISYVLYPKVYEQYIQTRNQYGNLSLLDTPTFFFGMRNGETVEIEIDKGKRLIIKLETISEPDENGNRTIYYAMNGQARRIYIKDENVHTNANVKPKADKSNPSHIGAQMPGSVTEVKVSVGETVKANQPLLITEAMKMETTIQAPFDGVIKQVTVNNGDTIATGDLLIEIEKATD
# modifications: biotinylated Lys1144
# Biological target: the molecule itself
# Test: cryo-EM structure
protein,measurement,value
B1,stoichiometry N,4
